According to article PMC7532634:

Assays:
Experiment in all cases: EMSA
[1] = system: T1, MsrR:C62S C62S (Corynebacterium glutamicum), ORF:1371e9c5; details: 10 mM Tris-HCl pH 7.4 (Fig 4 legend says pH 8.0 for the H2O2/DTT test), 5 mM MgCl2, 50 mM KCl, 5% glycerol, 0.1% NP40, 1 ug poly(dI:dC), 40 ng DNA in 20 ul …
T1 sequence: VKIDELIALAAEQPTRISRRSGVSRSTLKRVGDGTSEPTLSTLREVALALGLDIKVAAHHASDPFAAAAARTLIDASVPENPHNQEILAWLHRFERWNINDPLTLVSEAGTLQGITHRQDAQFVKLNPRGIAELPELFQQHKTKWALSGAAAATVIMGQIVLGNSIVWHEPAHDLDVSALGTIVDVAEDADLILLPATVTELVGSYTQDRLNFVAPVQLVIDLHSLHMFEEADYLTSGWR

[2] = system: MsrR (Corynebacterium glutamicum); details: no oxidant; apparent KD; 10 mM Tris-HCl pH 7.4 (Fig 4 legend says pH 8.0 for the H2O2/DTT test), 5 mM MgCl2, 50 mM KCl, 5% glycerol, 0.1% NP40, 1 ug poly(dI:dC), 40 ng DNA in 20 ul …
[3] = system: MsrR:C62S (Corynebacterium glutamicum); details: no H2O2; unit inferred, nM from context; apparent KD; 10 mM Tris-HCl pH 7.4 (Fig 4 legend says pH 8.0 for the H2O2/DTT test), 5 mM MgCl2, 50 mM KCl, 5% glycerol, 0.1% NP40, 1 ug poly(dI:dC), 40 ng DNA in 20 ul …

GTGGACACGGGGTGTCTCCTAAAGATGGGGAGCAAAAACCCTCAAACTGCTGCTAAAAATACAGGATTGGCGCCCGTGACGCTACTGAAAAGGTGGAGGGGCGCGTCGAAAAGCGTTGGCCGGTGCCTGAGCGAAAAACCGTGATGATTAGCATGGTTTGTT (double strand) [PmsrR]
Kd [1]: 23.1 nM | binding [1]: binds

PmsrR
Kd [2]: 17 nM | Kd [3]: 23.1 nM
